Target: canine IL-31 (canine)

Substance	IC50 (read off the curve); STAT3-SEAP reporter, canine IL-31 stimulation
Cytopoint® (Lokivetmab), a canine anti-IL31 (Cas number: 1533403-95-0) (antibody)	1 to 10 nM
Tirnovetmab, a canine anti-IL31 (Cas number: 2364504-80-1) (antibody)	3 nM
